Legend:
[1] = target: T1, human full length PRLR (accession #NP_000940.1) expressed on HCT15/PRLR cells (human, UniProt P16471 25-622); experiment: cell-based or functional assay
T1 sequence (looked up): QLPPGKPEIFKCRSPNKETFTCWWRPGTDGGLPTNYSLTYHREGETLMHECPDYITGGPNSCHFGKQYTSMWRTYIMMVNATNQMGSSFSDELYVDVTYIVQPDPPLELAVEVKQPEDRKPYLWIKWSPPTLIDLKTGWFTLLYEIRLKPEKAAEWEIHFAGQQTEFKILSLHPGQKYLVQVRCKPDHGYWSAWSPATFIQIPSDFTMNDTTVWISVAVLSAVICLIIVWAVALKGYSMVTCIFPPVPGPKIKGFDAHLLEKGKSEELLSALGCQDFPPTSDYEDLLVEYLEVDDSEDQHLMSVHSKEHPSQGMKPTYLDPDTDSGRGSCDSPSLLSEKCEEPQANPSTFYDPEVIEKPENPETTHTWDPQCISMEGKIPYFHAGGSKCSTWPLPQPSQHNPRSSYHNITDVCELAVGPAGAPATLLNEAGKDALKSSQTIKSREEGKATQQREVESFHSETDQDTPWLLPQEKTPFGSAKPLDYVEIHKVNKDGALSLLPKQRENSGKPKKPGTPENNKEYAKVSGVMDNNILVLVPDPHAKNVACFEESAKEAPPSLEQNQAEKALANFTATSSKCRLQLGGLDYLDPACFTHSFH

[2] = target: T2, STEAP2 endogenously expressed on C4-2 cells (human, UniProt Q8NFT2 1-490); experiment: cell-based or functional assay
T2 sequence (looked up): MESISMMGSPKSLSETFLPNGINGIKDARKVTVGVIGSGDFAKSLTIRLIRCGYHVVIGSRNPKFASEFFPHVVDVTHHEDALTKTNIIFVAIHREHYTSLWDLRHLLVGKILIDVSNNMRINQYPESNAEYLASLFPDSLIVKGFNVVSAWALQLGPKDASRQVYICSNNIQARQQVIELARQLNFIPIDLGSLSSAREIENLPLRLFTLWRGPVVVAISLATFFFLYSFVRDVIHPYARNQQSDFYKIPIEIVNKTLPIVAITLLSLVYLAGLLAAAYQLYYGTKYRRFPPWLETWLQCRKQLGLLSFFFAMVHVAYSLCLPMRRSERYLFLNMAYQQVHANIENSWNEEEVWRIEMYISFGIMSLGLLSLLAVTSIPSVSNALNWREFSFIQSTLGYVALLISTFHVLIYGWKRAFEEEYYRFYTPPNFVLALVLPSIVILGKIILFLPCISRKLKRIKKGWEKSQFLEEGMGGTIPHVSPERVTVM

[3] = test system: STEAP2 positive C4-2 prostate cancer xenografts; experiment: In vivo efficacy of anti-STEAP2 ADCs in C4-2 prostate cancer xenografts in SCID mice; parameters: species or system mouse; conditions: single dose 2.5 mg/kg via tail vein; end of study
Experimental: To determine the in vivo efficacy of anti-STEAP2 antibodies conjugated to tubulysins, studies were performed in immunocompromised mice bearing STEAP2 positive C4-2 prostate cancer xenografts.
For the assay, 7.5×10^6 C4-2 cells (ATCC, Cat #CRL-3314), which endogenously express STEAP2, were suspended in Matrigel (BD Biosciences, Cat #354234) and implanted subcutaneously into the left flank of male CB17 SCID mice (Taconic, Hudson NY). Once tumors had reached an average volume of 220 mm^3 (around Day 15), mice were randomized into groups of 7 and given a single dose of either anti-STEAP2 conjugated antibodies (anti-STEAP2-LP3, anti-STEAP2-LP4, anti-STEAP2-MMAE), isotype control conjugated antibody, or vehicle at 2.5 mg/kg via tail vein injection. Tumors were measured with calipers twice a week until the average size of the vehicle group reached 1500 mm^3. Tumor size was calculated using the formula (length×width^2)/2 and the average tumor size+/−SEM was then calculated. Tumor growth inhibition was calculated according to the following formula: (1−((Tfinal−Tinitial)/(Cfinal−Cinitial)))*100, where treated group (T) and control group (C) represent the mean tumor mass on the day the vehicle group reached 1500 mm^3.

[4] = test system: CTG-2440 prostate cancer PDX; experiment: Efficacy of STEAP2-Tubulysin ADC in CTG-2440 PDX prostate cancer model in NOG mice; format: in vivo, mouse
Experimental: (§1) Prostate cancer Patient-Derived Xenograft (PDX) tumor fragments of either CTG-2440 or CTG-2441 were implanted subcutaneously into the flank of male NOG mice. Once the tumor volumes reached approximately 200 mm^3, mice were randomized into groups of eight and were treated according to the schedule shown in Table 16 below. Tumor growth was monitored for 60 days post-implantation.
(§2) The prostate cancer models were derived from the bone metastases of patients with metastatic castrate resistant prostate cancer (mCRPC). STEAP2 expression was confirmed by RNA sequencing data and RNA in situ hybridization.

[5] = test system: CTG-2441 prostate cancer PDX; experiment: Efficacy of STEAP2-Tubulysin ADC in CTG-2441 PDX prostate cancer model in NOG mice; format: in vivo, mouse
Experimental: as §1, §2

[6] = 1.86 mg/kg QW × 1, total payload dose 40 ug/kg
[7] = 1.86 mg/kg QW × 3, total payload dose 120 ug/kg
[8] = 3.72 mg/kg QW × 3, total payload dose 240 ug/kg
[9] = 1.82 mg/kg QW × 1, total payload dose 40 ug/kg
[10] = 1.82 mg/kg QW × 3, total payload dose 120 ug/kg
[11] = 3.64 mg/kg QW × 3, total payload dose 240 ug/kg

B1: Anti-PRLR N297Q Ab-LP3 (antibody, V domains shown)
VH: QVQLVESGGGVVQPGRSLRLSCGASGFTFRNYGMQWVRQGPGKGLEWVTLISFDGNDKYYADSVKGRFTISRDNSKNTLFLQMNSLRTEDTAVYYCARGGDFDYWGQGTLVTVSS
VL: DIQMTQSPSSLSASVGDRVTITCRASQDIRKDLGWYQQKPGKAPKRLIYAASSLHSGVPSRFSGSGSGTEFTLTISSLQPEDFATYYCLQHNSYPMYTFGQGTKLEIK
modifications: N297Q (EU numbering) in the heavy chain constant region; linker-payload LP3 (payload IVd) clicked to azido-PEG3-amine that transglutaminase put on heavy chain glutamines; DAR 3.9 (Table 7)
With B1 the “IC50 (nM) on HCT15/PRLR w/ Verapamil (CellTiter-Glo cytotoxicity)” value [1] was 0.309 nM and the “IC50 (nM) on HCT15/PRLR w/o Verapamil (CellTiter-Glo cytotoxicity)” value [1] was 0.525 nM.

B2: Anti-PRLR N297Q Ab-LP4 (antibody, V domains shown)
VH: QVQLVESGGGVVQPGRSLRLSCGASGFTFRNYGMQWVRQGPGKGLEWVTLISFDGNDKYYADSVKGRFTISRDNSKNTLFLQMNSLRTEDTAVYYCARGGDFDYWGQGTLVTVSS
VL: DIQMTQSPSSLSASVGDRVTITCRASQDIRKDLGWYQQKPGKAPKRLIYAASSLHSGVPSRFSGSGSGTEFTLTISSLQPEDFATYYCLQHNSYPMYTFGQGTKLEIK
modifications: N297Q (EU numbering) in the heavy chain constant region; linker-payload LP4 (payload Ve) clicked to azido-PEG3-amine that transglutaminase put on heavy chain glutamines; DAR 3.9 (Table 7)
With B2 the “IC50 (nM) on HCT15/PRLR w/ Verapamil (CellTiter-Glo cytotoxicity)” value [1] was 0.196 nM and the “IC50 (nM) on HCT15/PRLR w/o Verapamil (CellTiter-Glo cytotoxicity)” value [1] was 3.31 nM.

B3: Anti-STEAP2 N297Q Ab-LP3 (antibody, V domains shown)
VH: QVQLVESGGGVVQPGRSLRLSCVASGFTISSYGMNWVRQAPGKGLEWVAVISYDGGNKYSVDSVKGRFTISRDNSKNTLYLQMNSLRAEDSAVYYCARGRYFDLWGRGTLVTVSS
VL: DIQMTQSPSTLSASVGDRVTITCRASQSISSWLAWYQQKPGRAPNLLISKASSLKSGVPSRFSGSGSGTEFTLTVSSLQPDDFATYYCQQYYSYSYTFGQGTKLEIK
modifications: N297Q (EU numbering) in the heavy chain constant region; linker-payload LP3 (payload IVd) clicked to azido-PEG3-amine that transglutaminase put on heavy chain glutamines; DAR 3.8 (Table 7)
With B3 the “% kill, C4-2 cells” value [2] was 99% and the “IC50 (nM), cytotoxicity in C4-2 cells (CellTiter-Glo)” value (shortened to “IC50 (nM), cytotoxicity in C4-2 cells”) [2] was 0.097 nM.

B4: Anti-STEAP2-LP4 (conjugate)
VH: QVQLVESGGGVVQPGRSLRLSCVASGFTISSYGMNWVRQAPGKGLEWVAVISYDGGNKYSVDSVKGRFTISRDNSKNTLYLQMNSLRAEDSAVYYCARGRYFDLWGRGTLVTVSS
VL: DIQMTQSPSTLSASVGDRVTITCRASQSISSWLAWYQQKPGRAPNLLISKASSLKSGVPSRFSGSGSGTEFTLTVSSLQPDDFATYYCQQYYSYSYTFGQGTKLEIK
In the case of B4, the “Average Final Tumor size mm^3 (mean ± SEM)” value [3] is reported as 258 ± 60 mm^3, the “Average Tumor Growth Inhibition (%)” value [3] is reported as 97% and the “Final tumor volume (mm^3) at termination (mean ± SD)” value (shortened to “Final tumor volume … (mean ± SD)”) [4, 6] is reported as 179.9 ± 68.5 mm^3. The “Tumor growth (mm^3) from start of treatment (mean ± SD)” value (shortened to “Tumor growth … (mean ± SD)”) [4, 6] was −20.0 ± 65.1 mm^3, the “Final tumor volume … (mean ± SD)” value [4, 7] was 73.5 ± 53.4 mm^3 and the “Tumor growth … (mean ± SD)” value [4, 7] was −129.3 ± 67.7 mm^3. For the same molecule, the “Final tumor volume … (mean ± SD)” value [4, 8] was 6.0 ± 11.4 mm^3, the “Tumor growth … (mean ± SD)” value [4, 8] was −196.5 ± 37.1 mm^3 and the “Final tumor volume … (mean ± SD)” value [5, 9] was 171.8 ± 176.1 mm^3. For the same molecule, the “Tumor growth … (mean ± SD)” value [5, 9] was −36.8 ± 167.0 mm^3, the “Final tumor volume … (mean ± SD)” value [5, 10] was 46.0 ± 15.1 mm^3 and the “Tumor growth … (mean ± SD)” value [5, 10] was −164.0 ± 57.3 mm^3. For the same molecule, the “Final tumor volume … (mean ± SD)” value [5, 11] was 33.5 ± 13.6 mm^3 and the “Tumor growth … (mean ± SD)” value [5, 11] was −179.1 ± 51.3 mm^3.

B5: Anti-STEAP2 N297Q Ab-LP4 (antibody, V domains shown)
VH: QVQLVESGGGVVQPGRSLRLSCVASGFTISSYGMNWVRQAPGKGLEWVAVISYDGGNKYSVDSVKGRFTISRDNSKNTLYLQMNSLRAEDSAVYYCARGRYFDLWGRGTLVTVSS
VL: DIQMTQSPSTLSASVGDRVTITCRASQSISSWLAWYQQKPGRAPNLLISKASSLKSGVPSRFSGSGSGTEFTLTVSSLQPDDFATYYCQQYYSYSYTFGQGTKLEIK
modifications: N297Q (EU numbering) in the heavy chain constant region; linker-payload LP4 (payload Ve) clicked to azido-PEG3-amine that transglutaminase put on heavy chain glutamines; DAR 3.8 (Table 7)
With B5 the “% kill, C4-2 cells” value [2] was 99% and the “IC50 (nM), cytotoxicity in C4-2 cells” value [2] was 0.15 nM.

B6: Anti-STEAP2-MMAE (antibody, V domains shown)
VH: QVQLVESGGGVVQPGRSLRLSCVASGFTISSYGMNWVRQAPGKGLEWVAVISYDGGNKYSVDSVKGRFTISRDNSKNTLYLQMNSLRAEDSAVYYCARGRYFDLWGRGTLVTVSS
VL: DIQMTQSPSTLSASVGDRVTITCRASQSISSWLAWYQQKPGRAPNLLISKASSLKSGVPSRFSGSGSGTEFTLTVSSLQPDDFATYYCQQYYSYSYTFGQGTKLEIK
modifications: conjugated to MMAE (payload of LP8, reference linker-payload); site of conjugation and DAR not stated
For B6, the “% kill, C4-2 cells” value [2] was 99%, the “IC50 (nM), cytotoxicity in C4-2 cells” value [2] was 0.53 nM and the “Average Final Tumor size mm^3 (mean ± SEM)” value [3] was 475 ± 118 mm^3. The “Average Tumor Growth Inhibition (%)” value [3] was 81%.

B7: Anti-STEAP2-LP3 (conjugate)
VH: QVQLVESGGGVVQPGRSLRLSCVASGFTISSYGMNWVRQAPGKGLEWVAVISYDGGNKYSVDSVKGRFTISRDNSKNTLYLQMNSLRAEDSAVYYCARGRYFDLWGRGTLVTVSS
VL: DIQMTQSPSTLSASVGDRVTITCRASQSISSWLAWYQQKPGRAPNLLISKASSLKSGVPSRFSGSGSGTEFTLTVSSLQPDDFATYYCQQYYSYSYTFGQGTKLEIK
B7 was tested, and the “Average Final Tumor size mm^3 (mean ± SEM)” value [3] was 115 ± 6 mm^3 and the “Average Tumor Growth Inhibition (%)” value [3] was 108%.

Source: patent US12144864B2, “Tubulysins and protein-tubulysin conjugates” (Regeneron Pharmaceuticals, Inc., priority 2018, dated 2024)
